From the supplement of paper PMC12042874
± gives the uncertainty stated by the source.

experiment: amyloid nucleation score (Sup35N fusion, yeast selection) (log enrichment); library NNK1; higher = more nucleation; inactive = no reads after selection
Outline: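 The nucleation score is a DiMSum log enrichment of output over input reads, centred on the mode score of non-aggregating sequences. Sequences under 100 input reads were excluded, and reads came from Illumina sequencing of plasmid inserts. Psi-negative yeast expressing Sup35N fused to peptides of 20 random codons were induced with 100 μM copper sulfate for 24 hours and grown 7 days at 30°C on medium lacking adenine and uracil. Random libraries had three technical output replicates.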

For RCYHWVDLVCVRVGTRACFL, which amyloid nucleation score is on record?
Its amyloid nucleation score is 0.877 ± 1.1.

For MPAMTMMWQ, which amyloid nucleation score is on record?
The amyloid nucleation score was 0.415 ± 0.4.

With VNVCYTMMEFVAGVYSGLLR as the substance, how does the amyloid nucleation score read?
Its amyloid nucleation score is 0.288 ± 0.29.

With FWVQNMVGNFFNYYFDRGNQ as the substance, how does the amyloid nucleation score read?
Its amyloid nucleation score is 7.791 ± 0.045.

Which amyloid nucleation score does the source give for AFGAVFRGEKR here?
The amyloid nucleation score was 0.241 ± 1.4.

Which amyloid nucleation score does the source give for ERAKRSY here?
Its amyloid nucleation score is 3.04 ± 0.069.

Which amyloid nucleation score does the source give for SMYFSHVSPFVWRSYCFLVC here?
Its amyloid nucleation score is “inactive”.

For ILHFWLTYK, which amyloid nucleation score is on record?
The amyloid nucleation score was 4.63 ± 0.1.

Which amyloid nucleation score does the source give for FNISFCIASSYVNTIGKQQG here?
The amyloid nucleation score was 3.32 ± 0.12.

With SLYLYMGWPSHWVESVLPYG as the substance, how does the amyloid nucleation score read?
Its amyloid nucleation score is 0.043 ± 0.89.

For YSGVPLARQCGADGLKGTGE, which amyloid nucleation score is on record?
Its amyloid nucleation score is 0.724 ± 1.2.

Which amyloid nucleation score does the source give for VDLFYE here?
The amyloid nucleation score was “inactive”.

Which amyloid nucleation score does the source give for ALSSNVGSMAFSR here?
The amyloid nucleation score was -0.06 ± 0.88.

Which amyloid nucleation score does the source give for QKRAMYDLGCSFSLFNLCYQ here?
Its amyloid nucleation score is 5.28 ± 0.062.

Which amyloid nucleation score does the source give for LNLVRLYVTSKCSLDATSVI here?
The amyloid nucleation score was -0.444 ± 1.2.

Which amyloid nucleation score does the source give for NQNAGELNKFPWDRWKYLYV here?
Its amyloid nucleation score is -1.1 ± 0.74.

Which amyloid nucleation score does the source give for RVVRSATADITACMSLNIYR here?
Its amyloid nucleation score is 0.879 ± 0.56.

For NKYLLNF, which amyloid nucleation score is on record?
Its amyloid nucleation score is “inactive”.

With SRYYNILWNKVCRVRDNH as the substance, how does the amyloid nucleation score read?
Its amyloid nucleation score is “inactive”.

For WSIDVNTTACKFFFRCSSCN, which amyloid nucleation score is on record?
The amyloid nucleation score was 1.43 ± 0.74.

With FSYLSFCPVVSFESTFPTPM as the substance, how does the amyloid nucleation score read?
Its amyloid nucleation score is 5.29 ± 0.066.

Which amyloid nucleation score does the source give for RLYLNDNTLSCF here?
The amyloid nucleation score was -0.001 ± 0.22.

For MASHGDWGCSNRVFLFPHCR, which amyloid nucleation score is on record?
Its amyloid nucleation score is -2.08 ± 1.9.

Which amyloid nucleation score does the source give for GSPMFLRIYLETYLPTYELS here?
Its amyloid nucleation score is 0.739 ± 0.42.

Which amyloid nucleation score does the source give for CRWSVLGREFSSQFVCWEDW here?
Its amyloid nucleation score is -0.59 ± 0.54.

Which amyloid nucleation score does the source give for RRTIYASLRLY here?
The amyloid nucleation score was 0.066 ± 0.29.

For LTMPYAI, which amyloid nucleation score is on record?
Its amyloid nucleation score is “inactive”.

For LDVNLGYCHVVYWTIVKVRL, which amyloid nucleation score is on record?
The amyloid nucleation score was “inactive”.

For GVSMVGGHATLLG, which amyloid nucleation score is on record?
Its amyloid nucleation score is -0.206 ± 1.2.

For RDLPFVTSSLCCSNTSGCMF, which amyloid nucleation score is on record?
The amyloid nucleation score was 0.429 ± 0.53.

Which amyloid nucleation score does the source give for INAQAVIGNFRGRYSVYNVH here?
Its amyloid nucleation score is 4.23 ± 0.065.

Which amyloid nucleation score does the source give for YDVVRSGFLGVDNITRLMPR here?
The amyloid nucleation score was -0.27 ± 1.2.

For LNNRE, which amyloid nucleation score is on record?
The amyloid nucleation score was 0.805 ± 0.78.

For MYFFGQYVCYYWEH, which amyloid nucleation score is on record?
Its amyloid nucleation score is 7.381 ± 0.058.

With CWDKRLNSY as the substance, how does the amyloid nucleation score read?
Its amyloid nucleation score is 0.688 ± 0.61.

For VRTFWCYCTWPASRYR, which amyloid nucleation score is on record?
Its amyloid nucleation score is -0.001 ± 0.51.

With RAWQHNFGKIMRSPRVFVRW as the substance, how does the amyloid nucleation score read?
The amyloid nucleation score was -1.4 ± 0.94.

With VDHVGGWVYWYGTRCTFVDG as the substance, how does the amyloid nucleation score read?
Its amyloid nucleation score is -0.048 ± 0.27.

Which amyloid nucleation score does the source give for TYKFGYVHVDTFMTVLMHTL here?
Its amyloid nucleation score is -0.169 ± 0.31.

With FAWLGCFSWTLNFWDKYMRG as the substance, how does the amyloid nucleation score read?
Its amyloid nucleation score is -0.856 ± 1.4.

With EGIHKR as the substance, how does the amyloid nucleation score read?
The amyloid nucleation score was 0.324 ± 0.66.

For SPPDVSNN, which amyloid nucleation score is on record?
The amyloid nucleation score was -0.169 ± 0.75.

For FFVGLPYTNSYHIPHVF, which amyloid nucleation score is on record?
The amyloid nucleation score was “inactive”.

With MYSLFMSKVRHFCVT as the substance, how does the amyloid nucleation score read?
The amyloid nucleation score was 2.09 ± 0.6.

For HHLVISCDSLENASYRLCIQ, which amyloid nucleation score is on record?
Its amyloid nucleation score is 1.45 ± 0.43.

With SVCILHMRRSCVGKPPKYNA as the substance, how does the amyloid nucleation score read?
Its amyloid nucleation score is “inactive”.

With HCFYYCMANRL as the substance, how does the amyloid nucleation score read?
Its amyloid nucleation score is 0.488 ± 0.24.

For IVSNDKWHMWLNRL, which amyloid nucleation score is on record?
The amyloid nucleation score was -0.022 ± 0.24.

With TLRVLFCRTMRRVDWSVQKV as the substance, how does the amyloid nucleation score read?
Its amyloid nucleation score is -1.03 ± 1.7.

For QWCVKESAFIYEYRLSGDCR, which amyloid nucleation score is on record?
The amyloid nucleation score was 0.877 ± 0.32.

For QGNHVKCVLCRVIPMRCLGL, which amyloid nucleation score is on record?
Its amyloid nucleation score is -1.41 ± 1.1.

For VKYGTLYEGRNDLIDVR, which amyloid nucleation score is on record?
The amyloid nucleation score was 0.635 ± 0.62.

With SLDLFSIKATRSDWSGFLRT as the substance, how does the amyloid nucleation score read?
The amyloid nucleation score was -0.613 ± 0.94.

Which amyloid nucleation score does the source give for VLIFAKFYELPGDRRFGTGW here?
The amyloid nucleation score was 3.87 ± 0.11.

For SLYVYISRFMTLMGCLTVNH, which amyloid nucleation score is on record?
The amyloid nucleation score was 0.575 ± 0.35.

For WWVNL, which amyloid nucleation score is on record?
The amyloid nucleation score was 0.247 ± 0.3.

Which amyloid nucleation score does the source give for DYDIWDAMPAQFQRITMYSV here?
The amyloid nucleation score was -0.243 ± 0.36.

For WTWILPMVRTIIYQY, which amyloid nucleation score is on record?
Its amyloid nucleation score is -0.356 ± 0.27.

For GRAYGSVCILRLGC, which amyloid nucleation score is on record?
The amyloid nucleation score was 0.835 ± 0.63.

Which amyloid nucleation score does the source give for WGRRLSR here?
Its amyloid nucleation score is 0.122 ± 0.5.

For STKQFFRLAFRGPWKTGHKP, which amyloid nucleation score is on record?
Its amyloid nucleation score is 0.273 ± 0.96.

For ARYHYWGGERASSLNKVSQW, which amyloid nucleation score is on record?
The amyloid nucleation score was 0.699 ± 1.

For NCLVAFYLKGYSCWWRFIIC, which amyloid nucleation score is on record?
Its amyloid nucleation score is 1.53 ± 0.52.

Which amyloid nucleation score does the source give for RGTGLICCTNVCGRTWKGHN here?
The amyloid nucleation score was 7.406 ± 0.047.

Which amyloid nucleation score does the source give for CYATMYAQGDRRSGDGCLPT here?
Its amyloid nucleation score is -1.86 ± 1.4.

Which amyloid nucleation score does the source give for AFGVYRVCLVWVHL here?
Its amyloid nucleation score is 0.232 ± 0.49.

With ELTGFFFCVRTSKCRIW as the substance, how does the amyloid nucleation score read?
The amyloid nucleation score was 0.533 ± 0.46.

Which amyloid nucleation score does the source give for VTSLCYRNFFGVVEVLRYCQ here?
Its amyloid nucleation score is 0.677 ± 0.51.

For CSGWMNGLSRVKPAHL, which amyloid nucleation score is on record?
The amyloid nucleation score was “inactive”.

With NTGWDRGHGCSLMFHRVLEW as the substance, how does the amyloid nucleation score read?
Its amyloid nucleation score is 2.67 ± 0.13.

For TFYVRDRAGCPW, which amyloid nucleation score is on record?
Its amyloid nucleation score is 1.33 ± 0.73.

With LMISGPYWR as the substance, how does the amyloid nucleation score read?
Its amyloid nucleation score is -0.142 ± 0.56.

With IGQFMVDWYNIGGREPVPGS as the substance, how does the amyloid nucleation score read?
Its amyloid nucleation score is 0.301 ± 0.78.

For TCLMRSRLACMFVRINEW, which amyloid nucleation score is on record?
The amyloid nucleation score was 1.19 ± 0.62.

Which amyloid nucleation score does the source give for HTNVWGGAHYTSIKAN here?
Its amyloid nucleation score is 0.581 ± 0.31.

With FLDASVDKSLSYPGHIVAFR as the substance, how does the amyloid nucleation score read?
Its amyloid nucleation score is -1.57 ± 1.7.

Which amyloid nucleation score does the source give for SSWLC here?
Its amyloid nucleation score is 1.4 ± 0.47.

For CLFDHKFMRIALHL, which amyloid nucleation score is on record?
Its amyloid nucleation score is “inactive”.

With GPPSLYTWTAYCELSRRPEG as the substance, how does the amyloid nucleation score read?
Its amyloid nucleation score is 0.515 ± 0.66.

With CHNHRMYH as the substance, how does the amyloid nucleation score read?
Its amyloid nucleation score is 0.072 ± 0.9.

Which amyloid nucleation score does the source give for FDAAIVLCSDVSIKGCLSRN here?
The amyloid nucleation score was 1.27 ± 0.27.

With GNDNCVRHGGRSSSRCLMKL as the substance, how does the amyloid nucleation score read?
The amyloid nucleation score was “inactive”.

Which amyloid nucleation score does the source give for VFITSVFVRECNTHESTTIQ here?
The amyloid nucleation score was 8.073 ± 0.078.

For LSYSWADSAPLCCTPMRGRG, which amyloid nucleation score is on record?
Its amyloid nucleation score is -0.324 ± 0.37.

With TVLSRVFWQRDGFVIAQSDG as the substance, how does the amyloid nucleation score read?
The amyloid nucleation score was “inactive”.

With LLALYCNDPKLEDSTLREFN as the substance, how does the amyloid nucleation score read?
The amyloid nucleation score was 1.15 ± 0.71.
